Measurements as given in patent US10702592B2, “Peptides and combination of peptides for use in immunotherapy against NHL and other cancers” (Immatics Biotechnologies GmbH, priority 2016, dated 2020).

Target: HLA-A*02:01 (Homo sapiens, UniProt P04439, D140Y/D185E/D98H/E176V/E277Q/G131W/G231S/I119V/I121R/I166T/I218V/L300P/L318F/N151K/N90K/P208A/P217A/Q86G/Q94H/R138H/R169H/T345S)
Experiment: MHC binding assay (UV-ligand exchange, beta2m ELISA)
Conditions: binding to HLA-A*02:01, UV-ligand exchange
Outline: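 UV-cleavable peptide in HLA monomers exchanged for test peptide by UV irradiation; exchange yield measured by streptavidin-capture ELISA with HRP anti-β2m (TMB, 450 nm) on 100-fold diluted complexes. Quantified against refolded HLA-A*02:01/MLA-001 standards (15-500 ng/ml).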

Row | Substance | Peptide exchange (MHC class I binding score, peptide exchange yield)
1 | 200 (YLLDFEDRL; listed as Homo sapiens) [compound 200] | “++++” (≥75% = ++++)
2 | 201 (YLNISQVNV; listed as Homo sapiens) [compound 201] | “+++” (≥50 = +++)
3 | 202 (ALAAGGYDV; listed as Homo sapiens) [compound 202] | “++” (≥20% = ++)
4 | 203 (ILDTIFHKV; listed as Homo sapiens) [compound 203] | “+++” (≥50 = +++)
5 | 204 (RLCDIVVNV; listed as Homo sapiens) [compound 204] | “++” (≥20% = ++)
6 | 205 (TLFYESPHL; listed as Homo sapiens) [compound 205] | “+++” (≥50 = +++)
7 | 206 (SAVSGQWEV; listed as Homo sapiens) [compound 206] | “++” (≥20% = ++)
8 | 207 (GLVGLLEQA; listed as Homo sapiens) [compound 207] | “++++” (≥75% = ++++)
9 | 208 (FLAVSLPLL; listed as Homo sapiens) [compound 208] | “+++” (≥50 = +++)
10 | 209 (FLLDTISGL; listed as Homo sapiens) [compound 209] | “+++” (≥50 = +++)
11 | 210 (FLAEQFEFL; listed as Homo sapiens) [compound 210] | “+++” (≥50 = +++)
12 | 211 (FIDDLFAFV; listed as Homo sapiens) [compound 211] | “+++” (≥50 = +++)
13 | 212 (FLIGQGAHV; listed as Homo sapiens) [compound 212] | “+++” (≥50 = +++)
14 | 213 (YINEDEYEV; listed as Homo sapiens) [compound 213] | “++” (≥20% = ++)
15 | 214 (FLFDGSMSL; listed as Homo sapiens) [compound 214] | “+++” (≥50 = +++)
16 | 215 (QLFEEEIEL; listed as Homo sapiens) [compound 215] | “++” (≥20% = ++)
17 | 216 (KVVSNLPAI; listed as Homo sapiens) [compound 216] | “++” (≥20% = ++)
18 | 217 (AQFGAVLEV; listed as Homo sapiens) [compound 217] | “+++” (≥50 = +++)
19 | 218 (ALDQFLEGI; listed as Homo sapiens) [compound 218] | “+++” (≥50 = +++)
20 | 219 (ALLELENSV; listed as Homo sapiens) [compound 219] | “++” (≥20% = ++)
21 | 220 (FLAEAPTAL; listed as Homo sapiens) [compound 220] | “++” (≥20% = ++)
22 | 221 (FLAPDNSLLLA; listed as Homo sapiens) [compound 221] | “++++” (≥75% = ++++)
23 | 222 (FLIETGTLL; listed as Homo sapiens) [compound 222] | “+++” (≥50 = +++)

Row | Substance | Peptide exchange (MHC class I binding score, peptide exchange yield)
24 | 223 (FLQDIPDGLFL; listed as Homo sapiens) [compound 223] | “++” (≥20% = ++)
25 | 224 (FLSPLLPLL; listed as Homo sapiens) [compound 224] | “++” (≥20% = ++)
26 | 226 (GVIDPVPEV; listed as Homo sapiens) [compound 226] | “++” (≥20% = ++)
27 | 227 (IIAEGIPEA; listed as Homo sapiens) [compound 227] | “++” (≥20% = ++)
28 | 228 (IIAEYLSYV; listed as Homo sapiens) [compound 228] | “++” (≥20% = ++)
29 | 229 (ILSPWGAEV; listed as Homo sapiens) [compound 229] | “++++” (≥75% = ++++)
30 | 230 (IMDDDSYGV; listed as Homo sapiens) [compound 230] | “++” (≥20% = ++)
31 | 231 (IVMGAIPSV; listed as Homo sapiens) [compound 231] | “+++” (≥50 = +++)
32 | 232 (KVMEGTVAA; listed as Homo sapiens) [compound 232] | “++” (≥20% = ++)
33 | 233 (MLEVHIPSV; listed as Homo sapiens) [compound 233] | “+++” (≥50 = +++)
34 | 234 (NLQRTVVTV; listed as Homo sapiens) [compound 234] | “++” (≥20% = ++)
35 | 235 (SLDVYELFL; listed as Homo sapiens) [compound 235] | “+++” (≥50 = +++)
36 | 236 (SLFDGFFLTA; listed as Homo sapiens) [compound 236] | “++++” (≥75% = ++++)
37 | 237 (YLDRLIPQA; listed as Homo sapiens) [compound 237] | “+++” (≥50 = +++)
38 | 238 (YQYGAVVTL; listed as Homo sapiens) [compound 238] | “+++” (≥50 = +++)
39 | 239 (VLIDDTVLL; listed as Homo sapiens) [compound 239] | “+++” (≥50 = +++)
40 | 240 (ALVPTPALFYL; listed as Homo sapiens) [compound 240] | “+++” (≥50 = +++)
41 | 241 (FIPDFIPAV; listed as Homo sapiens) [compound 241] | “++” (≥20% = ++)
42 | 242 (GILDFZVFL; listed as Homo sapiens) [compound 242] | “++++” (≥75% = ++++)
43 | 243 (GLPDLDIYL; listed as Homo sapiens) [compound 243] | “++++” (≥75% = ++++)
44 | 244 (ILEPFLPAV; listed as Homo sapiens) [compound 244] | “+++” (≥50 = +++)
45 | 245 (KLIQLPVVYV; listed as Homo sapiens) [compound 245] | “+++” (≥50 = +++)
46 | 246 (KLPVPLESV; listed as Homo sapiens) [compound 246] | “+++” (≥50 = +++)

Row | Substance | Peptide exchange (MHC class I binding score, peptide exchange yield)
47 | 247 (KVLEMETTV; listed as Homo sapiens) [compound 247] | “+++” (≥50 = +++)
48 | 248 (NLLEQFILL; listed as Homo sapiens) [compound 248] | “+++” (≥50 = +++)
49 | 249 (VLLESLVEI; listed as Homo sapiens) [compound 249] | “++++” (≥75% = ++++)
50 | 250 (VLTNVGAAL; listed as Homo sapiens) [compound 250] | “+++” (≥50 = +++)
51 | 251 (VLYELFTYI; listed as Homo sapiens) [compound 251] | “+++” (≥50 = +++)
52 | 252 (YLGDLIMAL; listed as Homo sapiens) [compound 252] | “+++” (≥50 = +++)
53 | 255 (GMWNPNAPVFL; listed as Homo sapiens) [compound 255] | “++++” (≥75% = ++++)
54 | 257 (FLQEWEVYA; listed as Homo sapiens) [compound 257] | “++++” (≥75% = ++++)
55 | 259 (TVLDGLEFKV; listed as Homo sapiens) [compound 259] | “++++” (≥75% = ++++)
56 | 263 (GLMDNEIKV; listed as Homo sapiens) [compound 263] | “+++” (≥50 = +++)
57 | 264 (ILTGTPPGV; listed as Homo sapiens) [compound 264] | “+++” (≥50 = +++)
58 | 265 (ILWHFVASL; listed as Homo sapiens) [compound 265] | “++++” (≥75% = ++++)
59 | 266 (QLTEMLPSI; listed as Homo sapiens) [compound 266] | “++++” (≥75% = ++++)
60 | 267 (SLLETGSDLLL; listed as Homo sapiens) [compound 267] | “+++” (≥50 = +++)
61 | 268 (VLFPLPTPL; listed as Homo sapiens) [compound 268] | “++++” (≥75% = ++++)
62 | 269 (VLQNVAFSV; listed as Homo sapiens) [compound 269] | “++++” (≥75% = ++++)
63 | 270 (VVVDSDSLAFV; listed as Homo sapiens) [compound 270] | “++++” (≥75% = ++++)
64 | 271 (YLLDQPVLEQRL; listed as Homo sapiens) [compound 271] | “++++” (≥75% = ++++)
65 | 272 (KLDHTLSQI; listed as Homo sapiens) [compound 272] | “++++” (≥75% = ++++)
66 | 273 (AILLPQPPK; listed as Homo sapiens) [compound 273] | “++” (≥20% = ++)
67 | 274 (KLLNLISKL; listed as Homo sapiens) [compound 274] | “++++” (≥75% = ++++)
